Laboratory results taken from article PMC6332214, “A 7-Deazaadenosylaziridine Cofactor for Sequence-Specific Labeling of DNA by the DNA Cytosine-C5 Methyltransferase M.HhaI”.

Biological target: T1, M.HhaI (DNA cytosine-C5 methyltransferase) (Haemophilus haemolyticus, UniProt P05102 1-327)
T1 sequence: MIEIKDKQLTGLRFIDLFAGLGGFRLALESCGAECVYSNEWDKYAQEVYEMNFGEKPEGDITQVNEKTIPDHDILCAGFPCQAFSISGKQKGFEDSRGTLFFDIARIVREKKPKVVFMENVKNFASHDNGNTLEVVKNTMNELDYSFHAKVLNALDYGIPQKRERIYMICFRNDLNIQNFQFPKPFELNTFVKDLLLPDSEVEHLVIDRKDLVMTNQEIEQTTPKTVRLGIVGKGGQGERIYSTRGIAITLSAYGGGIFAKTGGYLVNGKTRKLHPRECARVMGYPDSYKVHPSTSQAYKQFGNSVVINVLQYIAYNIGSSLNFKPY
Test: anion-exchange HPLC; complex of M.HhaI with coupling product; 80 uM cofactor 5, 10 uM duplex, 11 uM M.HhaI, 37 C 3 h; stable to chromatography, released at 65 C; 10 mM Tris-HCl pH 7.4, 50 mM NaCl, 0.05 mM EDTA, 2 mM beta-mercaptoethanol, 37 C; anion-exchange HPLC (Poros 10 HQ) in KCl gradient 0.2-1 M
Settings: label: biotin (via cofactor 5); blunt

B1: duplex ODN I5·II (coupling product with aziridine cofactor 5) (dsDNA)
DNA 1: TGTCAGCGCATGA
DNA 2: TCATGCGCTGACA
modifications: target C (position 7 of strand I) alkylated with 7-deazaadenosylaziridine-biotin cofactor 5; 5-methyl-dC at position 6 of strand II
- binding result: binds
